Measured values taken from patent US20160185837A1 (Medimmune Limited, priority 2013, published 2016).

Assays:
hGIPr (C3) = target: T1, hGIPr (C3) (Homo sapiens, UniProt P48546); assay: BSA-cAMP assay, second human GIPr cell line hGIPr (C3); type: cell-based; details: second human GIPr cell line, STDEV or N in the line below, read-out: cAMP activity hGIPr (C3) (EC50)
T1 construct: expressed in transfected cells
T1 sequence (P48546 22-466): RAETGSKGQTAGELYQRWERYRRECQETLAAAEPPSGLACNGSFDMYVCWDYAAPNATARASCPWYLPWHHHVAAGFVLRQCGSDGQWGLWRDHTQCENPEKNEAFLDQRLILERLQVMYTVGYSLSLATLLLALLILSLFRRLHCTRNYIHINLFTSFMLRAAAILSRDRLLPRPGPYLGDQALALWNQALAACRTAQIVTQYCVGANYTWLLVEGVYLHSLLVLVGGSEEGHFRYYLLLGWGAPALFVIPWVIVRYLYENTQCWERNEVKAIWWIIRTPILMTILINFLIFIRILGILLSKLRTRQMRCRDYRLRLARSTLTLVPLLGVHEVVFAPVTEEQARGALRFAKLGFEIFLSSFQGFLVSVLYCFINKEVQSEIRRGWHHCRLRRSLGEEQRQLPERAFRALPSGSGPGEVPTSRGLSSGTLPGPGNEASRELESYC
Procedure: For human GIPr, two different lines were used, shown as “hGIPr” and “hGIPr (C3)” in Table 11. Peptide activation of these various receptors results in downstream production of cAMP second messenger that can be measured in a functional activity assay.
One basic cAMP assays was performed, differing in the medium used for the assay, the “BSA-cAMP assay”:
BSA-based assay medium: 0.1% bovine serum albumin (BSA) in
Hanks Balanced Salt Solution (GIBCO or Sigma), containing 0.5 mM IBMX (Sigma #17018);
In certain aspects, the assay can also be carried out in medium supplemented with serum albumin that corresponds to the receptor being tested, e.g., human serum albumin for testing cAMP activity at hGIPr or hGLP-1r, rat serum albumin for testing cAMP activity at rGIPr or rGLP-1r, and so on. […]
cAMP levels were measured using a commercially available cAMP dynamic 2 HTRF kit (Cisbio, Cat #62AM4PEJ), following the two step protocol as per manufacturer's recommendations. […] Plates were incubated at room temperature for one hour and then read on an Envision (Perkin Elmer) using excitation wavelength of 320 nm and emission wavelengths of 620 nm & 665 nm. Data was transformed to % Delta F as described in manufacturer's guidelines and then transformed to percent activation of maximal native agonist response and analysed by 4-parameter logistic fit to determine EC50 values. […]

rat GIP receptor (rGIPr) = target: T2, rat GIP receptor (rGIPr) (Rattus norvegicus, UniProt P43219); assay: BSA-cAMP assay, cells expressing rat GIP receptor; type: cell-based; details: BSA-cAMP assay; read-out: cAMP activity rGIPr (EC50)
T2 construct: expressed in transfected cells; host or cells: HEK293s or CHO cells
T2 sequence (P43219 19-455): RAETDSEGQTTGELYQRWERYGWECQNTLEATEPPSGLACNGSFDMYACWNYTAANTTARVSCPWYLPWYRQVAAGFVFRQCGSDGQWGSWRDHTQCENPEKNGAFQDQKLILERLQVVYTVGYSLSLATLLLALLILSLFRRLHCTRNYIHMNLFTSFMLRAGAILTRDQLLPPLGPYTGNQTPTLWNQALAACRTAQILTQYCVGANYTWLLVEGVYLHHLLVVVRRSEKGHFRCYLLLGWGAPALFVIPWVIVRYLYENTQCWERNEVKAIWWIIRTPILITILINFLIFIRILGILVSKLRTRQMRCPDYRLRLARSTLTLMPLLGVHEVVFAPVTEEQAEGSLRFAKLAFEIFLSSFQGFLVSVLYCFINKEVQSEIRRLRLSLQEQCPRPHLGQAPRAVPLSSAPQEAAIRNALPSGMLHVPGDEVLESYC
Procedure, shortened: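 EC50 is the midpoint of an unconstrained 4-parameter logistic fit to HTRF cAMP data, expressed as percent of maximal native agonist response, from two separate occasions. Rodent (mouse, rat) GLP-1R- or GIPR-expressing cells were incubated with compound 30 min at room temperature in 0.1% BSA medium, in duplicate.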

B1: IP018 (protein)
chain: YSEGTFISDYSIAMDKIHQQDFVNWLLAQKAAAGGSGSTASSGSGSATGGGGAATHTCPPCPAPEF
modifications: /note=“Description of Artificial Sequence Synthetic Peptide-linker-hinge polypeptide”
EC50 (hGIPr (C3)): 0.8 nM
EC50 (rat GIP receptor (rGIPr)): 0.0076 nM
